For 79 sequences, switch fluorescence ratio results are on record in the supplement of paper PMC10126150.

± gives the standard deviation of the averaged measurements.
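Further: ATP exposure 15 min at 22 °C before imaging.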

The test system of the data set is ATP. As to the kind of experiment: switch fluorescence ratio, 500 uM ATP over buffer (Cy3 cluster intensity, sum of 5 cycles each) (fold (ratio)); higher = stronger signal-on switching upon ATP binding; sequences stand for … in TCGTCGGCAGCGTCAGATGTGTATAAGAGACAGTTTTTTTTTTTTTTTTTTTTTTTTT…TC. Particulars: aptamer strand: ATP DNA aptamer (quencher-CACCTGGGGGAGTATTGCGGAGGAAGG + anchor), 100 nM annealed; ATP concentration: 500 uM. In short, it runs like this: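 Switching-strand clusters labelled with Cy3 on a modified Illumina MiSeq flow-cell were annealed to 100 nM quencher-labelled ATP aptamer, imaged in selection buffer, and re-imaged after 15 min with 500 uM ATP at 22 °C. This was done over five cycles with NaOH stripping and re-annealing in between. The fluorescence ratio is summed target-cycle over summed buffer-cycle Cy3 intensity per cluster, averaged per switch-domain sequence, excluding clusters outside 100-1000 RFU.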
For the sequence TTGTGTAGCT, the switch fluorescence ratio was 1.02 ± 0.0057.

GTGGTGATGT: the switch fluorescence ratio stood at 1.02 ± 0.012.

For the sequence ACCGGGGTGC, the switch fluorescence ratio was found to be 1.612 ± 0.0063.

Turning to CTGAGGGGCG, the switch fluorescence ratio worked out at 1.04 ± 0.057.

Turning to GGGGATTAGA, the switch fluorescence ratio was found to be 0.9846 ± 0.0072.

Turning to AGGGCGTATT, the switch fluorescence ratio is 0.974 ± 0.026.

In the case of GATATATGGT, the switch fluorescence ratio turned out to be 0.9833 ± 0.0077.

Consider ATGGGCGAAC, for which the switch fluorescence ratio is 1.63 ± 0.82.

Consider TAGTTTTATA, for which the switch fluorescence ratio came to 1.016 ± 0.009.

Turning to ACGCAGCTGT, the switch fluorescence ratio worked out at 1.379 ± 0.0027.

As to TGATTATCTT, the switch fluorescence ratio was 1.047 ± 0.0097.

With AGATTACCTG, the switch fluorescence ratio was 1.02 ± 0.027.

Consider CGGTTGGGCT, for which the switch fluorescence ratio turned out to be 1.01 ± 0.054.

Consider TTGGTAGGTG, for which the switch fluorescence ratio stood at 1.04 ± 0.058.

For the sequence TTGCAATTCG, the switch fluorescence ratio was 3.05 ± 2.5.

On to CAGGTAAAAG, for which the switch fluorescence ratio worked out at 1.01 ± 0.035.

For TGCCGGTTTT, the switch fluorescence ratio was found to be 1.01 ± 0.036.

On to GCCCTAGTGT, for which the switch fluorescence ratio is 1.13 ± 0.024.

For the sequence AATTTGGTCC, the switch fluorescence ratio was 1.04 ± 0.058.

Turning to GCTTGTAGGC, the switch fluorescence ratio worked out at 0.994 ± 0.017.

Regarding TCATAGTTGG, the switch fluorescence ratio came to 0.979 ± 0.025.

For the sequence ACTGTTGGCG, the switch fluorescence ratio came to 0.965 ± 0.067.

Regarding GCCATACGCG, the switch fluorescence ratio is 1.03 ± 0.016.

In the case of TATGTACACT, the switch fluorescence ratio stood at 1.06 ± 0.053.

For the sequence AAGGAGTTGG, the switch fluorescence ratio was 0.989 ± 0.025.

On to GTTTTTAAGT, for which the switch fluorescence ratio was 1.03 ± 0.04.

As for AGCAGTGCGG, the switch fluorescence ratio worked out at 1.03 ± 0.024.

TTTAAGCGAT: the switch fluorescence ratio was 1.03 ± 0.015.

In the case of TACTCATTGT, the switch fluorescence ratio is 1.03 ± 0.021.

Consider GCTACCGTTT, for which the switch fluorescence ratio was found to be 1.04 ± 0.041.

Turning to TTTGGTGCTG, the switch fluorescence ratio stood at 0.983 ± 0.06.

On to ACACCCAAGT, for which the switch fluorescence ratio was found to be 1.21 ± 0.14.

As for CCGGGGGGGA, the switch fluorescence ratio amounted to 1.13 ± 0.23.

Regarding AATGCCAGGG, the switch fluorescence ratio came to 1.02 ± 0.026.

As for ATCGACATAG, the switch fluorescence ratio was determined as 0.9985 ± 0.006.

For the sequence CGAGGGTCTC, the switch fluorescence ratio worked out at 1.01 ± 0.029.

As to TGCTGCTCGG, the switch fluorescence ratio came out at 0.973 ± 0.031.

With GAGGGGAAAT, the switch fluorescence ratio turned out to be 0.999 ± 0.029.

Consider AATTTTTTCC, for which the switch fluorescence ratio stood at 1.41 ± 0.53.

Take ACGTGGTCCA: the switch fluorescence ratio worked out at 0.985 ± 0.037.

For ATTCTTTTGG, the switch fluorescence ratio turned out to be 0.9726 ± 0.0041.

On to CAGTGTAGGG, for which the switch fluorescence ratio stood at 1.017 ± 0.01.

Regarding TCCTAGCACT, the switch fluorescence ratio worked out at 1.65 ± 0.12.

As to TTGACATGGG, the switch fluorescence ratio came out at 1 ± 0.029.

For the sequence ACGTCGATGG, the switch fluorescence ratio came out at 0.995 ± 0.019.

On to ACGCTGCCGG, for which the switch fluorescence ratio is 1.1 ± 0.057.

On to AGATGGGGG, for which the switch fluorescence ratio turned out to be 0.948 ± 0.066.

On to TGAGGGTGGT, for which the switch fluorescence ratio was 0.981 ± 0.0012.

With GCGGATGCTT, the switch fluorescence ratio worked out at 0.9718 ± 0.0056.

Regarding GCTTTTTTGA, the switch fluorescence ratio is 0.993 ± 0.042.

Take AGTCAATTAG: the switch fluorescence ratio was found to be 1.04 ± 0.012.

For the sequence TTAGTTGGTC, the switch fluorescence ratio came out at 0.996 ± 0.029.

On to ACTGGGTCCT, for which the switch fluorescence ratio is 0.973 ± 0.015.

Regarding TTACCGTGGG, the switch fluorescence ratio was 1.05 ± 0.029.

As for GCTCTTAGCG, the switch fluorescence ratio was determined as 1.03 ± 0.054.

Take ACAGATTTAG: the switch fluorescence ratio is 0.972 ± 0.014.

Consider AAGGCGGCGG, for which the switch fluorescence ratio was determined as 0.991 ± 0.034.

For the sequence TATTAATGAT, the switch fluorescence ratio was 1.007 ± 0.01.

Take ATGGTAGGTG: the switch fluorescence ratio came to 1.04 ± 0.083.

For ATGCGAGCGG, the switch fluorescence ratio came to 0.985 ± 0.014.

Consider ACTGAGGGCG, for which the switch fluorescence ratio stood at 1.02 ± 0.025.

Turning to TTTGTCATCG, the switch fluorescence ratio was 1.03 ± 0.018.

For the sequence AGTCTAACTC, the switch fluorescence ratio was determined as 1.02 ± 0.019.

As for GGTTGGGGAC, the switch fluorescence ratio came out at 0.971 ± 0.022.

Regarding CCAATTAATC, the switch fluorescence ratio was 1.03 ± 0.032.

With TGAGTGATGT, the switch fluorescence ratio amounted to 1.01 ± 0.023.

GAGTTAGAAG: the switch fluorescence ratio is 0.9657 ± 0.0014.

In the case of TTGGGGAA, the switch fluorescence ratio worked out at 0.985 ± 0.025.

For TGCAAAAAGG, the switch fluorescence ratio worked out at 1.03 ± 0.014.

On to GGACCAAGGT, for which the switch fluorescence ratio was determined as 1.01 ± 0.014.

As to ACGACTCCCG, the switch fluorescence ratio came out at 1.109 ± 0.0044.

Take ATCTATTATT: the switch fluorescence ratio was determined as 1.012 ± 0.006.

On to ACGTTTGTTA, for which the switch fluorescence ratio was determined as 1.002 ± 0.0059.

As to CGGGGGAGTA, the switch fluorescence ratio was 0.996 ± 0.018.

Consider GAAGGGGAAT, for which the switch fluorescence ratio came to 1.003 ± 0.0052.

For the sequence GAATTTTGGG, the switch fluorescence ratio is 1 ± 0.032.

Consider TGTAGCCAGT, for which the switch fluorescence ratio amounted to 1.05 ± 0.07.

As for CGATGGACGG, the switch fluorescence ratio is 1.01 ± 0.033.

In the case of CCAACATGGG, the switch fluorescence ratio worked out at 1.03 ± 0.02.
